According to patent US20190055314A1 (ADAGENE, published 2019):

What follows are binders tested against T1, human CD137-His6 (Sino Biological #10041-H08H) (human, UniProt Q07011 24-186) (assay: SPR Biacore, IgG).
T1 construct: Bought; also called human CD137 protein; not shown: His6 tag

Binder | Kd [nM] | koff [s⁻¹] | kon [M⁻¹ s⁻¹]
AG10080 (antibody, human IgG4 S228P, kappa, V domains shown, also called IgG of Fab 4217) VH: EVQLVESGGGLVQPGGSLRLSCAASGYSISSGYYWDWIRQAPGKGLEWVSSISGDGDTTYYADSVKGRFTISRDNSKNTLYLQLNSLRAEDTAVYYCAREYYGYGYALDYWGQGTLVTVSS VL: DIQLTQSPSSLSASVGDRVTITCRASQGISSYLAWYQQKPGKAPKLLIYDASSLESGVPSRFSGSGSGTDFTLTISSLQPEDFATYYCQQYYSTPLTFGQGTKVEIKR | 10 | 0.012 | 1.2e+06
AG10063 (antibody, human IgG4 S228P, kappa, V domains shown, also called IgG of Fab 5413) VH: EVQLVESGGGLVQPGGSLRLSCAASGFSLSTGGVAVGWIRQAPGKGLEWLALIDWDGDKSYSTSLKSRLTISRDNSKNTLYLQLNSLRAEDTAVYYCAREGSTAVVGDWFDYWGQGTLVTVSS VL: DIQLTQSPSSLSASVGDRVTITCRASQGISRYLAWYQQKPGKAPKLLIYDASNRATGIPSRFSGSGSGTDFTLTISSLQPEDFATYYCQQGYSLWTFGQGTKVEIKR | 0.99 | 0.00039 | 390000
AG10083 (antibody, human IgG4 S228P, kappa, V domains shown, also called IgG of Fab 5323) VH: EVQLVESGGGLVQPGGSLRLSCAASGFSLSTSGVGVGWIRQAPGKGLEWIGEIYHSGSTYYSPSLKSRVTISRDNSKNTLYLQLNSLKAEDTAVYYCAREGSDVVTGDWFAYWGQGTLVTVSS VL: DIQLTQSPSSLSASVGDRVTITCRASQGISSVLAWYQQKPGKAPKLLIYDASSLESGVPSRFSGSGSGTDFTLTISSLQPEDFATYYCQQGYSLWTFGQGTKVEIKR | 12 | 0.0069 | 570000
AG10082 (antibody, human IgG4 S228P, kappa, V domains shown, also called IgG of Fab 5300) VH: EVQLVESGGGLVQPGGSLRLSCAASGYTFSNYWIHWVRQAPGKGLEWVSYISGDGDTTYYADSVKGRFTISRDNSKNTLYLQLNSLRAEDTAVYYCAREGSTTVAGDWFAYWGQGTLVTVSS VL: DIQLTQSPSSLSASVGDRVTITCRASQGIGSFLGWYQQKPGKAPKLLIYDASSLESGVPSRFSGSGSGTDFTLTISSLQPEDFATYYCQQYYSLVTFGQGTKVEIKR | 13 | 0.0072 | 560000
AG10079 (antibody, human IgG4 S228P, kappa, V domains shown, also called IgG of Fab 4074) VH: EVQLVESGGGLVQPGGSLRLSCAASGFSLSTGGVGVSWIRQAPGKGLEWVSSISGSGGTTYYADSVKGRFTISRDNSKNTLYLQLNSLRAEDTAVYYCARDDLYSWYFDVWGQGTLVTVSS VL: DIQLTQSPSSLSASVGDRVTITCRASQGIGSSLAWYQQKPGKAPKLLIYAASSLQSGVPSRFSGSGSGTDFTLTISSLQPEDFATYYCQQGYYTWTFGQGTKVEIKR | 1.4 | 0.00027 | 190000
AG10060 (antibody, human IgG4 S228P, kappa, V domains shown, also called IgG of Fab 5359) VH: EVQLVESGGGLVQPGGSLRLSCAASGFSLSTSGVGVGWIRQAPGKGLEWLALIDWADDKYYSPSLKSRLTISRDNSKNTLYLQLNSLRAEDTAVYYCARGGSDAVLGDWFAYWGQGTLVTVSS VL: DIQLTQSPSSLSASVGDRVTITCRASQGIGSYLAWYQQKPGKAPKLLIYDASNLETGVPSRFSGSGSGTDFTLTISSLQPEDFATYYCQQGYSIWTFGQGTKVEIKR | 1.1 | 0.00025 | 220000
AG10057 (antibody, human IgG4 S228P, kappa, V domains shown, also called IgG of Fab 5303) VH: EVQLVESGGGLVQPGGSLRLSCAASGFSLSTSGVAVGWIRQAPGKGLEWLALIDWADDKYYSPSLKSRLTISRDNSKNTLYLQLNSLRAEDTAVYYCAREGSDAVLGDWFAYWGQGTLVTVSS VL: DIQLTQSPSSLSASVGDRVTITCRASQDISTFLAWYQQKPGKAPKLLIYDASSLESGVPSRFSGSGSGTDFTLTISSLQPEDFATYYCQQAYSIWTFGQGTKVEIKR | 7.9 | 0.0061 | 770000
AG10061 (antibody, human IgG4 S228P, kappa, V domains shown) VH: EVQLVESGGGLVQPGGSLRLSCAASGFSLSTSGVAVAWIRQAPGKGLEWLALIDWDDDKRYSTSLKSRLTISRDNSKNTLYLQLNSLRAEDTAVYYCAREGSTTVVGDWFDYWGQGTLVTVSS VL: DIQLTQSPSSLSASVGDRVTITCRASQGIGTYLAWYQQKPGKAPKLLIYDASNRATGIPSRFSGSGSGTDFTLTISSLQPEDFATYYCQQGYSLWTFGQGTKVEIKR | 3.6 | 0.00078 | 220000
AG10081 (antibody, human IgG4 S228P, kappa, V domains shown, also called IgG of Fab 5299) VH: EVQLVESGGGLVQPGGSLRLSCAASGYSISSGHYWGWIRQAPGKGLEWLALIDWYGDKYYSTSLKSRLTISRDNSKNTLYLQLNSLRAEDTAVYYCARSDYYGSHFDYWGQGTLVTVSS VL: DIQLTQSPSSLSASVGDRVTITCRASESVDFDGFSFLAWYQQKPGKAPKLLIYDASNLETGVPSRFSGSGSGTDFTLTISSLQPEDFATYYCQQYDTLPRTFGQGTKVEIKR | 6.9 | 0.0017 | 240000
AG10062 (antibody, human IgG4 S228P, kappa, V domains shown, also called IgG of Fab 5404) VH: EVQLVESGGGLVQPGGSLRLSCAASGYSISSGYHWAWIRQAPGKGLEWIGEIYHSGSTYYSPSLKSRVTISRDNSKNTLYLQLNSLRAEDTAVYYCARSPYYYGVFDYWGQGTLVTVSS VL: DIQLTQSPSSLSASVGDRVTITCSASSRVGSVYWYQQKPGKAPKLLIYDASNLETGVPSRFSGSGSGTDFTLTISSLQPEDFATYYCQQYTHDPVTFGQGTKVEIKR | 5.9 | 0.00094 | 160000
AG10054 (antibody, human IgG4 S228P, kappa, V domains shown, also called IgG of Fab 4072) VH: EVQLVESGGGLVQPGGSLRLSCAASGFSLSTSGVAVSWIRQAPGKGLEWIGIINPNFGDTNYAQKFQGRVTISRDNSKNTLYLQLNSLRAEDTAVYYCARDEYYGGSYYFDYWGQGTLVTVSS VL: DIQLTQSPSSLSASVGDRVTITCRASQDVRTAVAWYQQKPGKAPKLLIYDASNLETGVPSRFSGSGSGTDFTLTISSLQPEDFATYYCQQSYDWPPTFGQGTKVEIKR | 13 | 0.0019 | 140000

The next lines start with the values.

Kd [nM] | koff [s⁻¹] | kon [M⁻¹ s⁻¹] | Binder
14 | – | – | AG10126 (antibody, human IgG4 S228P, kappa, V domains shown, also called IgG of Fab 5316) VH: EVQLVESGGGLVQPGGSLRLSCAASGYSISSGYHWAWIRQAPGKGLEWVSSISGDGSSTYYADSVKGRFTISRDNSKNTLYLQLNSLRAEDTAVYYCAREGSDAVTGDWFAYWGQGTLVTVSS VL: DIQLTQSPSSLSASVGDRVTITCRASQGVGTYLAWYQQKPGKAPKLLIYDASSLESGVPSRFSGSGSGTDFTLTISSLQPEDFATYYCQQGYSLWTFGQGTKVEIKR
54 | 0.0079 | 150000 | AG10085 (antibody, human IgG4 S228P, kappa, V domains shown, also called IgG of Fab 5367) VH: EVQLVESGGGLVQPGGSLRLSCAASGFSLSTSGVGVGWIRQAPGKGLEWVSGISGAGDSTYYADSVKGRFTISRDNSKNTLYLQLNSLRAEDTAVYYCAREGSDTVLGDWFAYWGQGTLVTVSS VL: DIQLTQSPSSLSASVGDRVTITCRASQDIRSYLAWYQQKPGKAPKLLIYDASNRATGIPSRFSGSGSGTDFTLTISSLQPEDFATYYCQQGYSIWTFGQGTKVEIKR
6 | 0.003 | 500000 | AG10124 (antibody, human IgG4 S228P, kappa, V domains shown, also called IgG of Fab 5302) VH: EVQLVESGGGLVQPGGSLRLSCAASGFSLSTGGVGVAWIRQAPGKGLEWVSSISGYGSTTYYADSVKGRFTISRDNSKNTLYLQLNSLRAEDTAVYYCAREGSDAVLGDWFGYWGQGTLVTVSS VL: DIQLTQSPSSLSASVGDRVTITCQASQDITTYLAWYQQKPGKAPKLLIYDASNRATGIPSRFSGSGSGTDFTLTISSLQPEDFATYYCQQGYYLWTFGQGTKVEIKR
3 | 0.00037 | 120000 | AG10128 (antibody, human IgG4 S228P, kappa, V domains shown, also called IgG of Fab 5342) VH: EVQLVESGGGLVQPGGSLRLSCAASGFSLSTGGVAVGWIRQAPGKGLEWLALIDWAGDKSYSTSLKSRLTISRDNSKNTLYLQLNSLRAEDTAVYYCAREGEDAVTGDWFAYWGQGTLVTVSS VL: DIQLTQSPSSLSASVGDRVTITCQASQDIRTYLAWYQQKPGKAPKLLIYDASNRATGIPSRFSGSGSGTDFTLTISSLQPEDFATYYCQQGYSIWTFGQGTKVEIKR
69 | 0.014 | 200000 | AG10132 (antibody, human IgG4 S228P, kappa, V domains shown, also called IgG of Fab 5408) VH: EVQLVESGGGLVQPGGSLRLSCAASGYSITSGYHWSWIRQAPGKGLEWVSSISGYGDTTYYADSVKGRFTISRDNSKNTLYLQLNSLRAEDTAVYYCAREGSDTVLGDWFAYWGQGTLVTVSS VL: DIQLTQSPSSLSASVGDRVTITCQASQDIRTYLAWYQQKPGKAPKLLIYDASNLETGVPSRFSGSGSGTDFTLTISSLQPEDFATYYCQQGYSIWTFGQGTKVEIKR
9.6 | 0.0029 | 300000 | AG10127 (antibody, human IgG4 S228P, kappa, V domains shown, also called IgG of Fab 5318) VH: EVQLVESGGGLVQPGGSLRLSCAASGFSLSTSGVAVGWIRQAPGKGLEWLALIDWDDDKYYSTSLKSRLTISRDNSKNTLYLQLNSLRAEDTAVYYCAREGSTAVAGDWFAYWGQGTLVTVSS VL: DIQLTQSPSSLSASVGDRVTITCQASQDIRTFLAWYQQKPGKAPKLLIYDASNRATGIPSRFSGSGSGTDFTLTISSLQPEDFATYYCQQGYSTWTFGQGTKVEIKR
15 | 0.0017 | 110000 | AG10125 (antibody, human IgG4 S228P, kappa, V domains shown, also called IgG of Fab 5314) VH: EVQLVESGGGLVQPGGSLRLSCAASGFSLSTGGVAVGWIRQAPGKGLEWLALIDWAGDKSYSTSLKSRLTISRDNSKNTLYLQLNSLRAEDTAVYYCARGGSDTVLGDWFAYWGQGTLVTVSS VL: DIQLTQSPSSLSASVGDRVTITCRASQGVSPYLAWYQQKPGKAPKLLIYDASNRATGIPSRFSGSGSGTDFTLTISSLQPEDFATYYCQQGYSTWTFGQGTKVEIKR
19 | 0.006 | 310000 | AG10129 (antibody, human IgG4 S228P, kappa, V domains shown, also called IgG of Fab 5353) VH: EVQLVESGGGLVQPGGSLRLSCAASGFTFSSYWIHWVRQAPGKGLEWVSVISGDGDTTYYADSVKGRFTISRDNSKNTLYLQLNSLRAEDTAVYYCARSRGLVLDAFDYWGQGTLVTVSS VL: DIQLTQSPSSLSASVGDRVTITCRASQSVSGRFLAWYQQKPGKAPKLLIYDASSLESGVPSRFSGSGSGTDFTLTISSLQPEDFATYYCQQYDYWPPYTFGQGTKVEIKR
